From US20230287143A1

What was measured:
human 4-1BB (human) [1] = molecular target: human 4-1BB (human) (UniProt Q07011); experiment: FACS; panel C
human 4-1BB (human) [2] = molecular target: human 4-1BB (human) (UniProt Q07011); experiment: FACS; panel A
CHO-K1/hu OX40 (human) = CHO-K1/hu OX40 (human) (UniProt P43489); experiment: FACS
Sequence of CHO-K1/hu OX40 (human) (P43489 29-277): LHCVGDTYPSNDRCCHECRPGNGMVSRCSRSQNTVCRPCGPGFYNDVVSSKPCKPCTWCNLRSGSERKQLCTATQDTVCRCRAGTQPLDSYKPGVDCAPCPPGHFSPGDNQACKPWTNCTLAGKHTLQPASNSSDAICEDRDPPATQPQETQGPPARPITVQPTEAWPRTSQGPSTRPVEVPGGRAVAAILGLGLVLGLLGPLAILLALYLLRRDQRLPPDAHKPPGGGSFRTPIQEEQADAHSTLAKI

Sequence of human 4-1BB (human) (Q07011 24-255): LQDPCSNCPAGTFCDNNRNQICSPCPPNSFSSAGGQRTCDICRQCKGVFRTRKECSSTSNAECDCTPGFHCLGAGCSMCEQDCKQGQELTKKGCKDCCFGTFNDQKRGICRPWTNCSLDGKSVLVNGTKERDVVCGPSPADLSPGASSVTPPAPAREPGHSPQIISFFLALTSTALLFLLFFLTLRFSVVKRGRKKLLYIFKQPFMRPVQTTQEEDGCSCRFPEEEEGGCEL

## Anti-4-1BB monoclonal antibody Urelumab analog (hIgG4)
Human 4-1BB (human) [1]
  EC50: 1.01 nM
Human 4-1BB (human) [2]
  EC50: 0.347 nM

## Pogalizumab
CHO-K1/hu OX40 (human)
  EC50: 1.15 nM
